Experimental data from patent publication US20120073987A1, “ELECT[…] AND APPARATUS OF IDENTIFYING THE PRESENCE OF A TARGET” (priority 2009, published 2012).

Assays:
[1] = biological target: T1, HIV-1 reverse transcriptase (Human immunodeficiency virus type 1 group M subtype B, UniProt P04585); assay: Cyclic voltammetry detection of HIV-1 RT binding on peptide-RT-modified Thc-Fc Au microelectrodes
T1 construct: HIV-1 reverse transcriptase (200 U, T3610Y, RT) was purchased from GE Healthcare; purchased GE Healthcare T3610Y
Method: (§1) Au microelectrodes were incubated in 1 mM ethanolic solution of Thc-Fc overnight (˜15 h). The electrodes were rinsed with ethanol and Millipore water (18.2 MΩ.cm). This layer was terminated by the amino-reactive carboxyl moieties that allowed the attachment of the peptides. The carboxyl groups were activated with 2 mM EDC and 5 mM NHS in 50 mM phosphate buffer solution (pH 7.4) for 2 h. The N-terminus of the peptides was attached to the activated carboxyl groups of Thc-Fc to give the final electrode interface. The peptides (1 mM) were incubated with the activated electrodes in 50 mM phosphate buffer solution (pH 7.4) for 2 h on a block-shaker at room temperature. Thus, the peptides were conjugated with the Fc compounds on the surface. The remaining active-esters were quenched by incubating the peptide-modified electrodes in 100 mM ethanolamine solution for 1 h on a block-shaker at room temperature. The peptide-modified electrodes were then incubated in 1 mM hexanethiol solution for 5 min to produce a diluted film and to back-fill the empty spots on the electrode surface. Finally, the electrodes were rinsed with ethanol and Millipore water to give the peptide-modified sensor surfaces. […]

HIV-1 integrase = biological target: T2, HIV-1 integrase (Human immunodeficiency virus type 1 group M subtype B, UniProt P04585); assay: Cyclic voltammetry detection of HIV-1 IN binding on peptide-IN-modified Thc-Fc Au microelectrodes
T2 construct: HIV integrase (100 μg, HIV-122, IN) was purchased from ProspecBio (USA); purchased ProspecBio HIV-122
Method: as §1

[2] = 100 nM protein solution, n=3 electrodes, FIG. 7

Sequence: VEAIIRILQQLLFIH [peptide-RT, purchased peptide ligand for HIV-1 RT, immobilised on ferrocene-modified gold electrode]
- electrochemical response to exposure to HIV-1 RT (selectivity) [1, 2]: responded to the exposure of HIV-1 RT
- detection limit for HIV-1 RT ([1]; estimated from 3(Sb/m), CV at 100 mV s^-1 in 2 M NaClO4, 1 h incubation in RT assay buffer pH 7.2): 20 nM

Sequence: YQLLIRMIYKNI [peptide-IN, purchased peptide ligand for HIV-1 IN, immobilised on ferrocene-modified gold electrode]
- electrochemical response to exposure to HIV-1 IN (selectivity) (HIV-1 integrase; [2]): responded to the exposure of HIV-1 IN
- detection limit for HIV-1 IN (HIV-1 integrase; CV at 100 mV s^-1 in 2 M NaClO4, IN assay buffer pH 7.5): 20 nM
